Test results from IntAct's records for PubMed 20577264.

B1: G2 and S phase-expressed protein 1 (Homo sapiens), Q9NYZ3 (parent)
chain: MEGGGGRDEPSACRAGDVNMDDPKKEDILLLADEKFDFDLSLSSSSANEDDEVFFGPFGHKERCIAASLELNNPVPEQPPLPTSESPFAWSPLAGEKFVEVYKEAHLLALHIESSSRNQAAQAAKPEDPRSQGVERFIQESKLKINLFEKEKEMKKSPTSLKRETYYLSDSPLLGPPVGEPRLLASSPALPSSGAQARLTRAPGPPHSAHALPRESCTAHAASQAATQRKPGTKLLLPRAASVRGRSIPGAAEKPKKEIPASPSRTKIPAEKESHRDVLPDKPAPGAVNVPAAGSHLGQGKRAIPVPNKLGLKKTLLKAPGSTSNLARKSSSGPVWSGASSACTSPAVGKAKSSEFASIPANSSRPLSNISKSGRMGPAMLRPALPAGPVGASSWQAKRVDVSELAAEQLTAPPSASPTQPQTPEGGGQWLNSSCAWSESSQLNKTRSIRRRDSCLNSKTKVMPTPTNQFKIPKFSIGDSPDSSTPKLSRAQRPQSCTSVGRVTVHSTPVRRSSGPAPQSLLSAWRVSALPTPASRRCSGLPPMTPKTMPRAVGSPLCVPARRRSSEPRKNSAMRTEPTRESNRKTDSRLVDVSPDRGSPPSRVPQALNFSPEESDSTFSKSTATEVAREEAKPGGDAAPSEALLVDIKLEPLAVTPDAASQPLIDLPLIDFCDTPEAHVAVGSESRPLIDLMTNTPDMNKNVAKPSPVVGQLIDLSSPLIQLSPEADKENVDSPLLKF

Variants of: B1
Details: with plk1_human PLK1, P53350
plk1_human PLK1, P53350, sequence (P53350 whole entry): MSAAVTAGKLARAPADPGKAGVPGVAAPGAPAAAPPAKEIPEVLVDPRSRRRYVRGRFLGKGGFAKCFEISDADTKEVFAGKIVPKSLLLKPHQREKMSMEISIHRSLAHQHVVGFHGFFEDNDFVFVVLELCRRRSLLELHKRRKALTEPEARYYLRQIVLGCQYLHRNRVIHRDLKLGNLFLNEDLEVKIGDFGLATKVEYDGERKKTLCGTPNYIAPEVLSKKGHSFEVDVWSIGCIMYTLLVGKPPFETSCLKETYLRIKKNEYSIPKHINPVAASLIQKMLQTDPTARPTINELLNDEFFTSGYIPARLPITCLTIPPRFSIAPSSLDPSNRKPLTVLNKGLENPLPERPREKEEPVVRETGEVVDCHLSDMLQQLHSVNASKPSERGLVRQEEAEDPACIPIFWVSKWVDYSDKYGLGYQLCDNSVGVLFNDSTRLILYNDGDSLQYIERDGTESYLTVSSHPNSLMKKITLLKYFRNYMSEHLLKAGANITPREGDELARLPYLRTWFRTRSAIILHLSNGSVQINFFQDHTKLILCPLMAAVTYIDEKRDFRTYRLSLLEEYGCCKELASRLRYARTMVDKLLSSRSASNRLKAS

Row | effect of a mutation on the interaction | Variant
1 | disrupting interaction | S454A

Variants of: B1
Details: with plk1_human PLK1, P53350
Remark: another data set of the same source

Row | effect of a mutation on the interaction | Variant
2 | disrupting interaction | S242A
